Results from patent publication US20190077864A1 (ONCOMED PHARMACEUTICALS, published 2019).

Key:
[1] = target: T1, hTIGIT variant 6 (V100M)-CD4TM-GFP on HEK-293T cells (human, UniProt Q495A1 22-141); experiment: FACS, 1 µg/ml antibody on transfected HEK-293T cells
T1 construct: not shown: transmembrane domain of CD4 (CD4TM); GFP tag
T1 chain: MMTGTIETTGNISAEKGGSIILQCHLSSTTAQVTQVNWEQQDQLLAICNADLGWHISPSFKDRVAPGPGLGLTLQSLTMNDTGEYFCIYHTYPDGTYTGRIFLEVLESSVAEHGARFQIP
Experimental: (§1) To identify the binding epitope of antibody 313M32, an analysis was performed with a series of variants of human TIGIT with specific amino acid substitutions. The variants were based upon the differences between human TIGIT and cynomolgus TIGIT amino acid sequences, SEQ ID NO:4 and SEQ ID NO:77, respectively. The amino acid sequence of rhesus monkey TIGIT (SEQ ID NO:78) is identical to cynomolgus TIGIT (FIG. 21). The amino acid variants introduce amino acid residues present in cynomolgus monkey TIGIT into corresponding positions in human TIGIT. The hTIGIT variants generated have substitutions at (1) E36K and […]; (2) T51M, (3) Q62H and Q64H, (4) D72E, (5) S78Y and S80A, (6) V100M, (7) I109T and T119R, and (8) G135S. Each variant hTIGIT was generated using the hTIGIT (aa 22-141)-CD4TM-GFP construct described in Example 15.
(§2) The TIGIT variants were evaluated by FACS with anti-hTIGIT antibodies. […] After 16 hours, transfected cells were suspended in ice cold HBSS containing 2% FBS and incubated on ice with 1 μg/ml anti-hTIGIT antibodies 313R12, 313M32, or 313M34 for 30 minutes. 313M34 is an anti-hTIGIT antibody that was generated based upon the amino acid sequences of the 10A7 antibody described in U.S. Publication 2009/0258013. The 10A7 antibody is an anti-mouse TIGIT antibody that binds both mouse TIGIT and human TIGIT. A second incubation with 50 μl PE-conjugated anti-Fc secondary antibody was performed to detect cells bound by the antibodies. The cells were analyzed on a FACSCanto instrument (BD Biosciences) and the data was processed using FlowJo software.

[2] = target: T2, hTIGIT variant 2 (T51M)-CD4TM-GFP on HEK-293T cells (human, UniProt Q495A1 22-141); experiment: as above
T2 construct: not shown: transmembrane domain of CD4 (CD4TM); GFP tag
T2 chain: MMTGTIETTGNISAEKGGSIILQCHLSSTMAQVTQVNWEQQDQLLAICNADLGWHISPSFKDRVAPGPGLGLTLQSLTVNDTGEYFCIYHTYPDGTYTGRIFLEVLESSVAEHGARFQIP
Experimental: as §1, §2

[3] = target: T3, hTIGIT variant 8 (G135S)-CD4TM-GFP on HEK-293T cells (human, UniProt Q495A1 22-141); experiment: as above
T3 construct: not shown: transmembrane domain of CD4 (CD4TM); GFP tag
T3 chain: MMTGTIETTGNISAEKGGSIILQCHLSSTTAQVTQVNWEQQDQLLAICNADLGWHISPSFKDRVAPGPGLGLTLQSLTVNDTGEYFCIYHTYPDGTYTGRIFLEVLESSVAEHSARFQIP
Experimental: as §1, §2

[4] = target: T4, hTIGIT variant 1 (E36K and I41V)-CD4TM-GFP on HEK-293T cells (human, UniProt Q495A1 22-141); experiment: as above
T4 construct: read as I41V; not shown: transmembrane domain of CD4 (CD4TM); GFP tag
T4 chain: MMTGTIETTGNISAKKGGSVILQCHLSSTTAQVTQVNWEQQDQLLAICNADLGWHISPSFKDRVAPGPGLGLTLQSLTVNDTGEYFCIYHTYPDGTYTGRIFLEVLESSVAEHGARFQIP
Experimental: as §1, §2

[5] = target: T5, hTIGIT variant 5 (S78Y and S80A)-CD4TM-GFP on HEK-293T cells (human, UniProt Q495A1 22-141); experiment: as above
T5 construct: not shown: transmembrane domain of CD4 (CD4TM); GFP tag
T5 chain: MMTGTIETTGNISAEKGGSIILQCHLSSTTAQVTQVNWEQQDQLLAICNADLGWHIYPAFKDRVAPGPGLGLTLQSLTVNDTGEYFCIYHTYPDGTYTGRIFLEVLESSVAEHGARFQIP
Experimental: as §1, §2

[6] = target: T6, hTIGIT variant 4 (D72E)-CD4TM-GFP on HEK-293T cells (human, UniProt Q495A1 22-141); experiment: as above
T6 construct: not shown: transmembrane domain of CD4 (CD4TM); GFP tag
T6 chain: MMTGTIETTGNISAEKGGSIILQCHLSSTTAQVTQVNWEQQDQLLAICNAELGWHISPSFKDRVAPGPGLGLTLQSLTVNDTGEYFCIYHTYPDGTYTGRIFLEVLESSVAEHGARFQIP
Experimental: as §1, §2

[7] = target: T7, hTIGIT variant 7 (I109T and T119R)-CD4TM-GFP on HEK-293T cells (human, UniProt Q495A1 22-141); experiment: FACS on transfected HEK-293T cells
T7 construct: not shown: transmembrane domain of CD4 (CD4TM); GFP tag
T7 chain: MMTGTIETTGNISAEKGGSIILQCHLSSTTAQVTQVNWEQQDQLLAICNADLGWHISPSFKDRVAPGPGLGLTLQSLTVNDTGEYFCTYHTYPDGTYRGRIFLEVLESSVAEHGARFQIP
Experimental: as §1
as §2, with “The 10A7 antibody is an anti-mouse TIGIT antibody that binds both mouse TIGIT and human TIGIT. A second incubation with 50 μl PE-conjugated anti-Fc secondary antibody was performed to detect cells bound by the antibodies.” left out

[8] = target: T8, hTIGIT variant 3 (Q62H and Q64H)-CD4TM-GFP on HEK-293T cells (human, UniProt Q495A1 22-141); experiment: FACS on transfected HEK-293T cells
T8 construct: not shown: transmembrane domain of CD4 (CD4TM); GFP tag
T8 chain: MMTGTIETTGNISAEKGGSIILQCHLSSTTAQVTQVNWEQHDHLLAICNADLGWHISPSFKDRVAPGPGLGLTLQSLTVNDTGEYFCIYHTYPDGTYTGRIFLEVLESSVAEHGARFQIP
Experimental: as §1
as §2, with “The 10A7 antibody is an anti-mouse TIGIT antibody that binds both mouse TIGIT and human TIGIT. A second incubation with 50 μl PE-conjugated anti-Fc secondary antibody was performed to detect cells bound by the antibodies.” left out

[9] = target: T9, hTIGIT-CD4TM-GFP on HEK-293T cells (human, UniProt Q495A1 22-141); experiment: inferred from two blocking studies of hPVR-rbFc binding to hTIGIT cells, flow cytometry
T9 construct: Cell surface fusion protein, transiently expressed; also called human TIGIT ECD-CD4TM-GFP; FLAG-hTIGIT-CD4TM-GFP; not shown: transmembrane domain of CD4 (CD4TM); C-terminal GFP protein tag
T9 sequence: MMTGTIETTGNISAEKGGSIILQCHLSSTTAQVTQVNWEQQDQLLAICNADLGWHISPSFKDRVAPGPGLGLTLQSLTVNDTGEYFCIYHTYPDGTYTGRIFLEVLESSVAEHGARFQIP
Experimental: After 16 hours, transfected cells were suspended in ice cold HBSS containing 2% FBS and heparin and incubated on ice with 0.5 μg/ml hPVR-rbFc fusion protein in the presence of anti-TIGIT antibodies 313R19, 313M26, or 313M32 for 60 minutes. Antibody 313R19 is a humanized version of a rabbit anti-TIGIT antibody. 313R19 binds mouse and human TIGIT. The antibodies were tested at concentrations of 10, 2, and 0.4 ug/ml. Cells were incubated without antibody or without hPVR-rbFc as controls. A second incubation with 100 μl PE-conjugated anti-rabbit Fc secondary antibody was performed to detect cells bound by the hPVR-rbFc fusion protein. The cells were analyzed on a FACSCanto instrument (BD Biosciences) and the data was processed using FlowJo software.
All three anti-TIGIT antibodies blocked binding of hPVR-rbFc to hTIGIT at the highest concentration of 10 μg/ml.

human TIGIT = target: T10, human TIGIT (human, UniProt Q495A1 22-141, limits assumed); experiment: Biacore, preliminary; format not stated
T10 construct: also called hTIGIT
T10 sequence: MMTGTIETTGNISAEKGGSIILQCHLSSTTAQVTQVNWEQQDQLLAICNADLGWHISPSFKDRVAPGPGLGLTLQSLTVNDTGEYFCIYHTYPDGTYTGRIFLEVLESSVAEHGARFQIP

[10] = target: T11, mouse TIGIT ECD-CD4TM-GFP on HEK-293T cells (mouse, UniProt P86176 29-148); experiment: flow cytometry, 1 µg/ml antibody on HEK-293T cells transiently transfected with mTIGIT-CD4TM-GFP, PE-conjugated anti-Fc secondary
T11 construct: The legend names the construct as mouse TIGIT ECD; also called mouse TIGIT-CD4TM-GFP; mTIGIT-CD4TM-GFP; not shown: transmembrane domain of CD4 (CD4TM); GFP (green fluorescent protein)
T11 sequence: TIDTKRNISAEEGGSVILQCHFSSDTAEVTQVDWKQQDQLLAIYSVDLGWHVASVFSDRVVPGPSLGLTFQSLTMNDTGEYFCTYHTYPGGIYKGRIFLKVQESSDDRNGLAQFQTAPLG
Experimental: as §2

B1: anti-TIGIT antibody 313M32 (antibody, human IgG1, kappa, V domains shown)
VH: QVQLQESGPGLVKPSETLSLTCAVSGYSITSDYAWNWIRQPPGKGLEWIGYISYSGSTSYNPSLRSRVTISRDTSKNQFFLKLSSVTAADTAVYYCARRQVGLGFAYWGQGTLVTVSS
VL: DIQMTQSPSSLSASVGDRVTITCKASQDVSTAVAWYQQKPGKAPKLLIYSASYRYTGVPSRFSGSGSGTDFTFTISSLQPEDIATYYCQQHYSTPWTFGQGTKVEIKR
notes: Humanized version of 313M26, human IgG1
binding result [1]: binds
binding result [2]: binds
binding result [3]: binds
binding result [4]: binds
binding result [5]: binds
binding result [6]: binds
binding result [7]: no binding (tested: 1 µg/ml)
binding result [8]: no binding (tested: 1 µg/ml)
fold higher affinity than antibody 313R19 [9]: ~5 fold
Kd (human TIGIT): 0.4 nM
binding result [10]: no binding (tested: 1 µg/ml)
